From US20230151091A1 (NEW YORK UNIVERSITY, published 2023)
Numbering of substitutions follows the chain as printed. Numbers in names are those of the source. Blank lines part the entries; values can stand above or below the binder they belong to.

Columns and labels:
[1] = biological target: T1, mouse MuSK, endogenous (C2C12 myotubes; neuromuscular synapses of mice) (mouse, UniProt Q61006 22-868); experiment: cell-based or functional assay
T1 sequence (looked up): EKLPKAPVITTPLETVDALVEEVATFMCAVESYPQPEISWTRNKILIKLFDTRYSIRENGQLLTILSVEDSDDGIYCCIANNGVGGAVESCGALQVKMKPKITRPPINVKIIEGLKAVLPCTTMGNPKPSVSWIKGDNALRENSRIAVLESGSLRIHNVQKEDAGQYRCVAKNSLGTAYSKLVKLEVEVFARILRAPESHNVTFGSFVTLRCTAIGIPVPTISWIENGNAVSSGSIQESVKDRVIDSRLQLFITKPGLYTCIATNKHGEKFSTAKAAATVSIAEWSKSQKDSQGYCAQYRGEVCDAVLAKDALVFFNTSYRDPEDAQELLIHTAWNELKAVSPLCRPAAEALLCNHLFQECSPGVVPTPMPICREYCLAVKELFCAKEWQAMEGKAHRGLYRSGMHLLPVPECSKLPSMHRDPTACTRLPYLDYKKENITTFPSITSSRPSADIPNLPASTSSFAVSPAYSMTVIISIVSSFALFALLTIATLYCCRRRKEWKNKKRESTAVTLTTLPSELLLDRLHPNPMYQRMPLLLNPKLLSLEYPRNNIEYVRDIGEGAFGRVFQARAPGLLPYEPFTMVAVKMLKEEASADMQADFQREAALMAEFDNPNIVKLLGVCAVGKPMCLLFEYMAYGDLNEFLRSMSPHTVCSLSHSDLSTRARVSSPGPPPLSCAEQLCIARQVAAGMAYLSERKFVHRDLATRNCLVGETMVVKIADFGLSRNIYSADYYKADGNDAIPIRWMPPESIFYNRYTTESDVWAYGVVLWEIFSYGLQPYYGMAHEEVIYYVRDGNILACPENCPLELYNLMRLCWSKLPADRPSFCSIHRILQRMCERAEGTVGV

cynomolgus monkey MuSK = cynomolgus monkey MuSK (cynomolgus monkey, UniProt A0A2K5USF6 24-487); experiment: Biacore, MuSK on chip (200RU), 66.7 nM mAb, dissociation pH 7.4
Sequence of cynomolgus monkey MuSK (A0A2K5USF6 entry or part of it): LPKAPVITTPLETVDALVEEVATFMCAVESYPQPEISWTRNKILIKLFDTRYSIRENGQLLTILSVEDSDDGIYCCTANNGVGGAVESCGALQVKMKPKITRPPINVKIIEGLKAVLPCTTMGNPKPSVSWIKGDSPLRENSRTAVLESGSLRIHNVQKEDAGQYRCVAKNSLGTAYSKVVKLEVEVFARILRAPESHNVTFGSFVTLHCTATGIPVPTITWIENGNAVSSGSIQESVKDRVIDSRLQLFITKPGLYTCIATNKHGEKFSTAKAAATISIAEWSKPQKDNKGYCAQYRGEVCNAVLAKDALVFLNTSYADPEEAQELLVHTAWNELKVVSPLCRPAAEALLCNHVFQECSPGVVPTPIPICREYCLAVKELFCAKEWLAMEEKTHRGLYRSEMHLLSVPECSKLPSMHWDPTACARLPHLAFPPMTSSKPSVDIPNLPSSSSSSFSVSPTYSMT
Procedure, shortened: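 Sensor chip coated in parallel with cynomolgus monkey, rat and mouse MuSK. Antibody applied at a single concentration; association and dissociation kinetic parameters calculated from the sensorgrams.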

mouse MuSK = biological target: T2, mouse MuSK (mouse, UniProt Q61006 22-494, limits assumed); experiment: Biacore T200, MuSK on chip (200RU), 22.2 nM Fab, dissociation pH 5.5
T2 construct: Coated on ELISA plates or on the Biacore chip; also called full length mouse MuSK; mouse MuSK (in house produced in HEK293 cells)
T2 sequence (looked up): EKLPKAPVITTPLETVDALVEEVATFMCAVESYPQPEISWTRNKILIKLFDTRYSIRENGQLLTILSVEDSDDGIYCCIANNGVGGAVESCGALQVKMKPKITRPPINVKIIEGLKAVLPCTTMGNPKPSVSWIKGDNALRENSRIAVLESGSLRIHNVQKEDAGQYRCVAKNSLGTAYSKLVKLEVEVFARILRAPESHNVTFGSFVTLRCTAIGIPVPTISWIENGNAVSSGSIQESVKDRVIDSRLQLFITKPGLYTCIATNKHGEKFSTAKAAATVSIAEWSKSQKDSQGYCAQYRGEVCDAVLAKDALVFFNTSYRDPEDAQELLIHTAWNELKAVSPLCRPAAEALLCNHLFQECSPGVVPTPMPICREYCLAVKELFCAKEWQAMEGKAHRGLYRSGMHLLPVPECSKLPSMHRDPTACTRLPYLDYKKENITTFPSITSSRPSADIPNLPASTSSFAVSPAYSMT
Procedure, shortened: (§1)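 Surface plasmon resonance was run with both human and mouse MuSK immobilized on the sensor chip. Fab association was always performed at pH 7.4 before the dissociation phase. Kinetic parameters were calculated from the binding curves.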

human MuSK = biological target: T3, human MuSK (human, UniProt O15146 24-495); experiment: as above
T3 construct: Recombinant protein coated on ELISA plates (R&D Systems cat. 10189-MK) or on the Biacore chip; also called human muscle-specific tyrosine protein kinase; full length human MuSK
T3 sequence: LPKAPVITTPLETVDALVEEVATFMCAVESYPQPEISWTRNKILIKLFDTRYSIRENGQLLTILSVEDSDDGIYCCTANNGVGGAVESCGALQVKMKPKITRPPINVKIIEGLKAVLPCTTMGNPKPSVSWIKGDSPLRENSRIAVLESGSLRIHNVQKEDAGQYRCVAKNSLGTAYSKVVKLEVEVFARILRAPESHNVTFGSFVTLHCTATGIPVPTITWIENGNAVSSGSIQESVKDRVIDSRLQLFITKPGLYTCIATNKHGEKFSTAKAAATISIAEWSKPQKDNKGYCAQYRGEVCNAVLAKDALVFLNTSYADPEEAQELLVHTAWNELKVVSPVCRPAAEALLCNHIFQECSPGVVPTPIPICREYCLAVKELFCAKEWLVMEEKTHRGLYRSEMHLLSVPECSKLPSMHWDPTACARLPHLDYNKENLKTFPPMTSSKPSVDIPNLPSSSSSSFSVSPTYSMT
Procedure, shortened: as §1

- % Phosphorylation Induced in C2C12 Mouse Assay, Assay 1 [1]: 74 % versus agrin
- % Phosphorylation Induced in C2C12 Mouse Assay, Assay 2 [1]: 94 % versus agrin
- % Phosphorylation Induced in C2C12 Mouse Assay, Assay 3 [1]: 64 % versus agrin
- % Phosphorylation Induced in C2C12 Mouse Assay, Average [1]: 77 % versus agrin
- R0 (cynomolgus monkey MuSK): 143 RU
- koff (cynomolgus monkey MuSK): 0.00097 s⁻¹
- kon (cynomolgus monkey MuSK): 790000 M⁻¹ s⁻¹
B1: 3B2 (antibody, V domains shown)
VH: ELQLVESGGGLVQPGGSLRLSCAASGFTFDDYGMSWVRQAPGKGLEWVSAIPWNGGSTYYKESVKGRFTISRDNAKKTLYLQMNSLKSEDTAVYYCAKRSGRIAFGALDAWGQGTLVTVSS
VL: QAVVTQEPSLSVSPGGTVTLTCGLSSGSVTSSNYPDWYQQTPGQAPRGLIYSTDSRHSGVPSRFSGSISGNKAALTITGAQSEDEADYYCGLYMYSGSKNYVFGGGTKLTVL
notes: human IgG1 with the LALA mutations (L234A, L235A); produced in HEK293 cells; also called 3B2 mAb; parental 3B2 Ab

- koff (mouse MuSK): 0.00051 s⁻¹
- koff (human MuSK): 0.00034 s⁻¹
B2: X2 Fab (Fab, V domains shown)
VH: EVQLVESGGGLVQPGGSLRLSCAASGFTVSSSSIHWVRQAPGKGLEWVASISSSYGSTSYADSVKGRFTISADTSKNTAYLQMNSLRAEDTAVYYCARSEGDRYVSGYMGMDYWGQGTLVTVSS
VL: DIQMTQSPSSLSASVGDRVTITCRASQSVSSAVAWYQQKPGKAPKLLIYSASSLYSGVPSRFSGSRSGTDFTLTISSLQPEDFATYYCQQSGVWLITFGQGTKVEIK
notes: Fab format

- koff (mouse MuSK): 0.0246 s⁻¹
- koff (human MuSK): 0.00225 s⁻¹
B3: X3 Fab (Fab, V domains shown)
VH: EVQLVESGGGLVQPGGSLRLSCAASGFTISSSSIHWVRQAPGKGLEWVASISSSSGYTYYADSVKGRFTISADTSKNTAYLQMNSLRAEDTAVYYCARSWYEMWMSGYFGFDYWGQGTLVTVSS
VL: B2 VL with G92S, V93S, W94S
notes: Fab format
